In patent US9234001B2, “Cysteine-free efficient Technetium (Tc) or Rhenium (Re) chelating peptide tags and their use” (Commissariat a L'Energie Atomique et aux Energies …, priority 2008, dated 2016):
Ends that are not written are not given here.

Tests used:
[1] = molecular target: T1, CHO-SST-2 (mb) (Homo sapiens, UniProt P30874); experiment: Binding to somatostatin receptor, CHO-SST-2 membranes
T1 construct: expressed in transfected cells; host or cells: CHO cell membranes (mb)
Protocol: After subtraction of the non-specific binding and normalization, data obtained with [^125I][Tyr^1]-somatostatin were analyzed using the Hill equation to estimate the IC50 values.

[2] = Cysteine challenge of TcO complexes; type: physicochemical; details: pH 7.4, 20 h, 310 K
Protocol: A solution containing 16 μg of lyophilized TcO[UBI 29-41] (SEQ ID NO: 1) was added to 32 μl of Cysteine solution in PBS pH 7.4. Three concentrations of Cysteine solution were used: 100 mM, 15 mM and 1 mM corresponding respectively to a molar ratio Cysteine:Tc-UBI-WT of 333, 53 and 3. The samples were incubated for 20 h at 310 K prior to HPLC and ESI-MS analysis. Similar experiment was performed for TcO[TGRRR] (SEQ ID: NO 22) complex. 13 μg of lyophilized TGRRR(SEQ ID: NO 22)-TcO complex were added to 64 μl of 15 mM Cysteine solution in PBS pH 7.4 corresponding to a TcO[TGRRR] (SEQ ID: NO 22):Cysteine molar ratio of 50. This solution was incubated for 20 h at room temperature prior to HPLC analysis.
To be useful for the in vivo application of the TGRRR sequence (SEQ ID NO: 26) to label peptides or proteins, the TcO[TGRRR] (SEQ ID NO: 27) complex must be stable during 1-3 times the period of ^99mTc. The inventors evaluated the stability of the [TcO]^3+ complexes in the case of the peptide UBI-WT (SEQ ID: NO 1) and TGRRR, (peptide P13; SEQ ID NO: 26). To this end, the inventors performed a Cysteine challenge. 16 μg of the TcO[UBI-WT] was added to 1, 15, and 100 mM solutions of Cysteine at pH 7.4 corresponding respectively to molar ratio of 3, 53 and 333. These samples were incubated for 20 h at 310 K. The mixtures were analyzed by HPLC and LC-MS.

[3] = test system: AR4-2J xenografted tumour; experiment: Whole body section imaging with β-imager; type: in vivo, mice
Protocol: Full Body section analysis: the mice were injected by caudal vein and sacrificed 4 hours later. For imaging, the mice were anesthesied and then immersed in an −80° C. mixture of dry ice and isopentane to prevent CNT tissue redistribution. After blocking the body in mounting medium, tissue sections (20 μm) were made at −20° C. with a slicing microtome (LEICA Microsystems, France). Sections were kept at room temperature for 2 hours in the presence of silica gel to ensure complete drying.
The quantitative determination of the radioactivity in dried tissue sections and imaging were carried out using a β-imager (Biospace Lab, Paris, France).

[4] = test system: AR4-2J xenografted tumour; details: mouse, in vivo
Protocol: Females Balb/c nude mice weighing 20 g were purchased from Charles River Laboratories (L'Arbresle, France). The mice were kept in a conventional animal facility and had access ad libitum to food and drink. The experimental protocol has been approved by the local ethical committee for animal experimentation.
Mice were implanted subcutaneously with 5-6 millions AR4-2J cells freshly suspended in sterile PBS. […] After 1 h, 4 h or 24 h time period, the mice were sacrificed by ex-sanguination under anaesthesia. Organs of interest, blood and urine were collected and weighted. The radioactivity was measured with a gamma counter.
Two control experiments were also conducted.

[5] = 30 equivalents of Cysteine; cited from earlier work

T1 sequence (P30874 whole entry): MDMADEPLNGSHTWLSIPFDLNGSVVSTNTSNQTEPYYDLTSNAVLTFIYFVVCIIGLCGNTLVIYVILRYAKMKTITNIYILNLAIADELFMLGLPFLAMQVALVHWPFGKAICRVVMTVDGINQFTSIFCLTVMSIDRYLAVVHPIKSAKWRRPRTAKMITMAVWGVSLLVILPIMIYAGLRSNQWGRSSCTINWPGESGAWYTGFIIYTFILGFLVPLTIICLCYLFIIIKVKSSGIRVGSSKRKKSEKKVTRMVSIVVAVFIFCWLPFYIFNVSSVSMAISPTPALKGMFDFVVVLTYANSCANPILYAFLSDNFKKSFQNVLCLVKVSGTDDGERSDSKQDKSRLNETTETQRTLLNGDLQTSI

## CC(C)[C@@H]1NC(=O)[C@H](CCCCN)NC(=O)[C@@H](Cc2c[nH]c3ccccc23)NC(=O)[C@H](Cc2ccc(O)cc2)NC(=O)[C@@H](NC(=O)[C@@H](Cc2ccccc2)NC(=O)CNC(=O)CNC(=O)[C@H](CCCNC(=N)N)NC(=O)[C@H](CCCNC(=N)N)NC(=O)[C@H](CCCNC(=N)N)NC(=O)CNC(=O)[C@@H](N)[C@@H](C)O)CSSC[C@@H](C(=O)N[C@H](C(N)=O)[C@@H](C)O)NC1=O
[1]
  Ki: 0.02 nM

## TGRAKRRMQYNRR (Ac-TGRAKRRMQYNRR-NH2) [SEQ ID NO: 1, N-acetylated, C-amidated tridecamer, residue 29 to 41 of the protein Ubiquicidine]
[2]; 1 mM Cysteine
  initial [TcO]3+ complex observed: more than 95%
[2]; 15 mM Cysteine
  initial [TcO]3+ complex observed: 69%
[2]; 100 mM Cysteine
  initial [TcO]3+ complex observed: 10%

## TcO[HTGRRRGG-RC-121]: TcO complex of HTGRRRGG-RC-121
[3]; group 1, 4 hours post injection
  radioactivity uptake in the tumour region, β-imaging of whole body section: important uptake of the labelled compound in this region
[3]; group 2, 125-fold excess of RC-121, 4 hours post injection
  radioactivity uptake in the tumour region, β-imaging of whole body section: absence of radioactivity uptake

## TcO[HTGRRR]: [TcO]3+ complex of the TGRRR peptide (P13) (TGRRR-OH; also: TcO complex)
[4]
  Tumor/Blood Ratio: 1
  Tumor/Muscle Ratio: 2.6
  radioactivity in Adrenals: 2.2 ± 4.7 % ID/g
  radioactivity in Bile: 6.6 ± 2.4 % ID/g
  radioactivity in Blood: 0.3 ± 0.3 % ID/g
  radioactivity in Brain: 0.1 ± 0.2 % ID/g
  radioactivity in Carcass: 0.2 ± 0.1 % ID/g
  radioactivity in Heart: 0.7 ± 0.6 % ID/g
  radioactivity in Intestines: 1.3 ± 0.8 % ID/g
  radioactivity in Kidneys: 21.9 ± 9.5 % ID/g
  radioactivity in Liver: 2.1 ± 0.5 % ID/g
  radioactivity in Lungs: 0.6 ± 0.8 % ID/g
  radioactivity in Muscle: 0.8 ± 1.23 % ID/g
  radioactivity in Pancreas: 0.3 ± 0.6 % ID/g
  radioactivity in Spleen: 0.7 ± 0.6 % ID/g
  radioactivity in Stomach: 2.6 ± 2.2 % ID/g
  radioactivity in Tail: 5.3 ± 4.5 % ID/g
  radioactivity in Urine: 8.6 ± 5.5 % ID/g
[2]; 15 mM Cysteine
  initial [TcO]3+ complex observed: 57%

## [AGGG]TcO complex: TcO complex of the peptide AGGG (SEQ ID NO: 31), from the literature (also: TcO complex)
[5]
  stability against Cysteine: completely unstable
